Test results taken from patent US20090269356, “Complement Binding Aptamers and Anti-C5 Agents Useful in the Treatment of Ocular Disorders” (published 2009).
Numbering of substitutions follows the chain as printed.

How the values were obtained:
C5a des Arg = C5a des Arg (Homo sapiens, UniProt P01031 P01031:678-750); experiment: filter; printed >>3 uM; PBS, 1 mM MgCl2, BSA, tRNA, 25 or 37 C; conditions: tags: Complement Technologies A145.6; label: 5'-32P; stem-loop
Method: (§1) The specificity of ARC186 (SEQ ID NO: 4) for C5 was also assessed in nitrocellulose filtration assays by comparison with complement components both upstream and downstream from C5 in the complement cascade. Purified human proteins and protein complexes were purchased from Complement Technologies (Iyler, Tex.) including: C1q (cat. # A099.18; 2.3 μM), C3 (cat. # A113c.8; 27 μM, C5 (cat. # A120.14; 5.4 μM), C5a des Arg (cat. # A145.6; 60 μM), sC5b-9 (cat. # A127.6; 1 μM), factor B (cat. # A135.12; 11 μM) and factor H (cat #A137.13P; 6.8 μM). Binding reactions were established by performing serial dilutions of protein in PBS plus 1 mM MgCl₂, 0.02 mg (mL BSA and 0.002 mg/mL tRNA, incubating for 14 hours at 25° C. or 37° C., and then applied to the nitrocellulose filtration apparatus as described above. Dissociation constants KD were determined from semi-log plots of % nitrocellulose binding versus [C5] by a fit of the data to the equation: % nitrocellulose binding=amplitude×[C5]/(KD+[C5]).

complement C1q = complement C1q (Homo sapiens, UniProt P02745;P02746;P02747 P02745:23-245,P02746:28-253,P02747:29-245); experiment: filter; PBS, 1 mM MgCl2, BSA, tRNA; conditions: tags: Complement Technologies A099.18; chain copies: 6; label: 5'-32P; stem-loop
complement C1q, sequence (P02745 23-245, chain 1 of 3): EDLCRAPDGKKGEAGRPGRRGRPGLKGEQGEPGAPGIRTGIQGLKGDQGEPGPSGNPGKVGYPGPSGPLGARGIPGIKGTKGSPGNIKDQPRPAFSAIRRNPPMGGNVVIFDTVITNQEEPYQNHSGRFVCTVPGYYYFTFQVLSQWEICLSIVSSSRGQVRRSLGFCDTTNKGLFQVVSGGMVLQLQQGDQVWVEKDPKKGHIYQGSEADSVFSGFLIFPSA
complement C1q, sequence (P02746 28-253, chain 2 of 3): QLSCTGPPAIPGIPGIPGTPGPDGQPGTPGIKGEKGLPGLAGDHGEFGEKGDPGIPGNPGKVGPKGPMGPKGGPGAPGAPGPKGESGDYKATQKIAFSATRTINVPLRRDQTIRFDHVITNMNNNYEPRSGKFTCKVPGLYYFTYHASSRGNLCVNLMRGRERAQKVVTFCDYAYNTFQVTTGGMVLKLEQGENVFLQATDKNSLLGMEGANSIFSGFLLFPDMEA
complement C1q, sequence (P02747 29-245, chain 3 of 3): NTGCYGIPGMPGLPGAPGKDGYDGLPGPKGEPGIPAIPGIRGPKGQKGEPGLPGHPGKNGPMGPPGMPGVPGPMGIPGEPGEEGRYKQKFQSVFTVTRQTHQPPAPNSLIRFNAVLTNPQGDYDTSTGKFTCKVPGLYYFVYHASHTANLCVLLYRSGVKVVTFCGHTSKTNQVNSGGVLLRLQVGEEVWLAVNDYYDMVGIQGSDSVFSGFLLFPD
Method: as §1

sC5b-9 complex = sC5b-9 complex (Homo sapiens, UniProt P01031;P01031;P13671;P10643;P07357;P07358;P07360;P02748;P04004 …); experiment: filter; PBS, 1 mM MgCl2, BSA, tRNA, 25 or 37 C; conditions: tags: Complement Technologies A127.6; label: 5'-32P; stem-loop
Method: as §1

[1] = target: complement C5 in human serum/blood (Homo sapiens, UniProt P01031); experiment: inhibition; CH50 hemolysis, 0.2% human serum, 37 C; conditions: protein: extract; label: 5'-32P; stem-loop
complement C5 in human serum/blood, sequence (P01031 whole entry): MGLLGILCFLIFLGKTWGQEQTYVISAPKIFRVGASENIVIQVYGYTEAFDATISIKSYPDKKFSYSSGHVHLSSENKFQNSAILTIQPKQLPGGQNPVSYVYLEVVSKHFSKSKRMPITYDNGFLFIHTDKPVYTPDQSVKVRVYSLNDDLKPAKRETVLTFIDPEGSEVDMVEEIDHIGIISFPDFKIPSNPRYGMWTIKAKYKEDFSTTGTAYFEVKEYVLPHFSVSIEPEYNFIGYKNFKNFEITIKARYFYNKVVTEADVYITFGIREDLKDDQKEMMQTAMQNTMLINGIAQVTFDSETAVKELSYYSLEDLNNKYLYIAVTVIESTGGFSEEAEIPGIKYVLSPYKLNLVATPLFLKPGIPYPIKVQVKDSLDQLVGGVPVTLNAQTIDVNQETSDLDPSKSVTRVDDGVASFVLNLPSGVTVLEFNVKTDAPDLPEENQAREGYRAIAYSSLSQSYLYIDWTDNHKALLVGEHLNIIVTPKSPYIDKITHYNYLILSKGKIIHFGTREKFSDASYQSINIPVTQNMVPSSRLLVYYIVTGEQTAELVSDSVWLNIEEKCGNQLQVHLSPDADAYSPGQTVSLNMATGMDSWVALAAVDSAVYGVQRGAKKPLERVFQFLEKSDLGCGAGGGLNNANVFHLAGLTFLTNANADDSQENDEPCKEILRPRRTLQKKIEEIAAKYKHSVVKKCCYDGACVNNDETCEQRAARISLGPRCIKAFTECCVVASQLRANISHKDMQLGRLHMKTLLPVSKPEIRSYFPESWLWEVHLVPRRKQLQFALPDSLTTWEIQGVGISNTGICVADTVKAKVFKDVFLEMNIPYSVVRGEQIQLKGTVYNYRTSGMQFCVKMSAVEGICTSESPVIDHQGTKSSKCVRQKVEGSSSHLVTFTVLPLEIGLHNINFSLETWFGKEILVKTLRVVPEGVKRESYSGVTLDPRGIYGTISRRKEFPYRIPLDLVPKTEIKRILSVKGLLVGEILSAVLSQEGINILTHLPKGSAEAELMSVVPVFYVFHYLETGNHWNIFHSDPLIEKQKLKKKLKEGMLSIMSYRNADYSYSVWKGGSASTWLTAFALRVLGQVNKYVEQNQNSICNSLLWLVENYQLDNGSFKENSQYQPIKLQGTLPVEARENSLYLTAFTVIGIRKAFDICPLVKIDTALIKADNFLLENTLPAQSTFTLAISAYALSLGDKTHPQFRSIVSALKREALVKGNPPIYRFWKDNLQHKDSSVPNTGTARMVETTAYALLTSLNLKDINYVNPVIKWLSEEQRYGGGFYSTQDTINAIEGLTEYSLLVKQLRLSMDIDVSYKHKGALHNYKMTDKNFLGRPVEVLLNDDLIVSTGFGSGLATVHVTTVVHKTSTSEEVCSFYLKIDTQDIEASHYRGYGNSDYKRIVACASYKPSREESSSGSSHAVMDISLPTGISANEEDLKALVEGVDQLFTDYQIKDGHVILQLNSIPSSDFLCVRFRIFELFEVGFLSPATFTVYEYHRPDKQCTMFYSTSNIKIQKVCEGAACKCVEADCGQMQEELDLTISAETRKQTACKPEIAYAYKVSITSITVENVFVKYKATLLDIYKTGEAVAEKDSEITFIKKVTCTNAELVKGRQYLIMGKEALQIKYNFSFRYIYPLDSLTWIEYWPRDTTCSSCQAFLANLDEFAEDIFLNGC
From the text: The CH50 test measures the ability of the complement system in a serum test sample to lyse 50% of cells in a standardized suspension of antibody-coated sheep erythrocytes. A solution of 0.2% human serum was mixed with antibody-coated sheep erythrocytes (Diamedix EZ Complement CH50 Kit, Diamedix Corp., Miami, Fla.) in the presence or absence of various anti-C5 aptamers. The assay was run according to the kit protocol in veronal-buffered saline containing calcium, magnesium and 1% gelatin (GVB⁺⁺ complement buffer) and incubated for 30 minutes at 37° C. After incubation, the samples were centrifuged to pellet intact erythrocytes. The optical density at 412 nm (OD₄₁₂) of the supernatant was read to quantify the release of soluble hemoglobin, which is proportional to the extent of hemolysis (Green et al., (1995) Chem. Biol. 2:683-95). To verify that the aptamers blocked C5 activation, some hemolysis supernatants were analyzed for the presence of C5a and C5b-9 by ELISA (C5b-9 ELISA kit, Quidel, San Diego, Calif.; C5a ELISA kit, BD Biosciences, San Diego, Calif.) following the ELISA kit protocols.

[2] = target: T1, complement C5 (full length) (Homo sapiens, UniProt P01031); experiment: filter; PBS, 1 mM MgCl2, 23 C, 4 h; 0.6 nM at 37 C; kinetic estimate 0.07 nM (koff 0.013 /min, kon 0.18 /nM/min); conditions: tags: Quidel / Complement Technologies A120.14 / Advanced Research Technologies; label: 5'-32P; stem-loop
T1 sequence (P01031 whole entry): as above
Method: The binding reactions were analyzed by nitrocellulose filtration using a Minifold I dot-blot, 96-well vacuum filtration manifold (Schleicher & Schuell, Keene, N.H.). A three-layer filtration medium was used, consisting (from top to bottom) of Protran nitrocellolose (Schleicher & Schuell), Hybond-P nylon (Amersham Biosciences, Piscataway, N.J.) and GB002 gel blot paper (Schleicher & Schuell). The nitrocellulose layer, which selectively binds protein over nucleic acid, preferentially retained the anti-C5 aptamer in complex with a protein ligand, while non-complexed anti-C5 aptamer passed through the nitrocellulose and adhered to the nylon. The gel blot paper was included simply as a supporting medium for the other filters. Following filtration, the filter layers were separated, dried and exposed on a phosphor screen (Amersham Biosciences) and quantified using a Storm 860 Phosphorimager® blot imaging system (Amersham Biosciences).
To analyze the association reaction, the equilibration rate constant (keq) for the formation of C5·ARC186 was measured in the presence of varying concentrations of C5 protein (1-5 nM). Complex formation was initiated by mixing together C5 protein and radiolabeled ARC186 in PBS containing 1 mM MgCl₂ at room temperature (23° C.), and stopped by nitrocellulose filtration partitioning. […]

complement C3 = complement C3 (Homo sapiens, UniProt P01024;P01024 P01024:23-667,P01024:672-1663); experiment: filter; non-activated C3 essentially does not bind; conditions: tags: Complement Technologies A113c.8; label: 5'-32P; stem-loop
complement C3, sequence (P01024 23-667, chain 1 of 2): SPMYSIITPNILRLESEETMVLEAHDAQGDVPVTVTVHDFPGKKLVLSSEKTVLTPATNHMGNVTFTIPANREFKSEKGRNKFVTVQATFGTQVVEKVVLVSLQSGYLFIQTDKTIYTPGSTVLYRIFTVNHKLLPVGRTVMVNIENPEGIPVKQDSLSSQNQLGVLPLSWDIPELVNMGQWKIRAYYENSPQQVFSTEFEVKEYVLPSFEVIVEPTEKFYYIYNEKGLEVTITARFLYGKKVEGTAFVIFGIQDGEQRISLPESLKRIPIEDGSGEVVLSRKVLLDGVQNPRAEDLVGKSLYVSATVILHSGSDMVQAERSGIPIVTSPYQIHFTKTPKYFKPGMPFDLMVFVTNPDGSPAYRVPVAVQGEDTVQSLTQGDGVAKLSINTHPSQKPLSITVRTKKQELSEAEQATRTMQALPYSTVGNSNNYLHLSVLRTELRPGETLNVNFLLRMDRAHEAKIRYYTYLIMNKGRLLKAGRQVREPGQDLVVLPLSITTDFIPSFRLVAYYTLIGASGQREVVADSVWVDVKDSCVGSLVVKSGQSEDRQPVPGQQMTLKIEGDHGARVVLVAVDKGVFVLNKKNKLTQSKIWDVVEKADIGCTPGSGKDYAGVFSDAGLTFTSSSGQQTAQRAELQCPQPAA
complement C3, sequence (P01024 672-1663, chain 2 of 2): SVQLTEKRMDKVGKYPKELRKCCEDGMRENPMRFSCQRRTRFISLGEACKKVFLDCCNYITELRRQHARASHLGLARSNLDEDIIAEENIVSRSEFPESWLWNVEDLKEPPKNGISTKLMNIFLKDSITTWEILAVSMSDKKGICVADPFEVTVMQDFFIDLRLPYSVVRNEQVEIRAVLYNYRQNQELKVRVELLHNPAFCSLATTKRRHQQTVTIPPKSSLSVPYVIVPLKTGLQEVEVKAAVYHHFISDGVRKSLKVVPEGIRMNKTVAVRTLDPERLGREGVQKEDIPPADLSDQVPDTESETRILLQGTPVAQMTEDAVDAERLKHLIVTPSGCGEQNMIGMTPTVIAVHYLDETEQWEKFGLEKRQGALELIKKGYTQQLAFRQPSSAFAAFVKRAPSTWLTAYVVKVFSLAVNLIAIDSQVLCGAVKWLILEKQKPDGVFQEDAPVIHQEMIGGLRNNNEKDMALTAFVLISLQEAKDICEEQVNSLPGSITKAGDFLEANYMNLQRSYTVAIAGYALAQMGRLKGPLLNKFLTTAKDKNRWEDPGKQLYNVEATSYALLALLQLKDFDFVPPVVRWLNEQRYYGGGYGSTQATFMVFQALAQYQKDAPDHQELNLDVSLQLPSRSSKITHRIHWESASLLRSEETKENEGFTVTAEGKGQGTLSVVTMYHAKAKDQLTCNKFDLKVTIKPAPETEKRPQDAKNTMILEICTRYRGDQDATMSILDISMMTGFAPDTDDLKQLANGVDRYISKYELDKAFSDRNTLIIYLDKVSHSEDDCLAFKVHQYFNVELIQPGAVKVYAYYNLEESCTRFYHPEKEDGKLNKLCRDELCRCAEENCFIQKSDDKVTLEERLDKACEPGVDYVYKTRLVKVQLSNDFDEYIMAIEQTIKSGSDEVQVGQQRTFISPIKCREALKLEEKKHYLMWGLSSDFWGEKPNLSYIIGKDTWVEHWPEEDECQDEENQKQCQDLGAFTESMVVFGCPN
Method: as §1

[3] = target: T1, complement C5 (full length); experiment: filter; among 11 best clones in 500 nM screen; Kd not given; conditions: tags: Quidel / Complement Technologies A120.14 / Advanced Research Technologies
Method: (§2) Doped reselection data. Both the normal and high salt selections were enriched after 5 rounds over the naïve pool. At round 5 the pool Kd was approximately 165 nM for the high salt selection and 175 nM for the normal salt selection. The extent of binding was about 20% at the plateau in both. The R4 pools were cloned using TOPO TA cloning kit (Invitrogen, Carlsbad, Calif.), and 48 clones from each pool were sequenced. 12 clones from each pool were transcribed and assayed in a single point dot blot assay at 500 nM C5. Dissociation constants (Kds) were again measured using the dot blot assay previously described. Kds were estimated for the 11 best clones identified in the single point screen, by fitting the data to the equation: fraction RNA bound=amplitude*Kd/(Kd+[C5]). The clones with the three best Kds were SEQ ID NO: 91 (73 nM), SEQ ID NO: 96 (84 nM) and SEQ ID NO: 95 (92 nM). The sequences for these 11 clones are listed below in Table 5.

[4] = target: T1, complement C5 (full length); experiment: filter; dot blot, DPBS; conditions: tags: Quidel / Complement Technologies A120.14 / Advanced Research Technologies
Method: (§3) The selection progress was monitored using a sandwich filter binding (dot blot) assay. The 5′-³²P-labeled pool RNA (trace concentration) was incubated with C5, 1×DPBS plus 0.1 mg/mL tRNA and 0.1 mg/mL salmon sperm DNA, for 30 minutes at room temperature, and then applied to a nitrocellulose and nylon filter sandwich in a dot blot apparatus (Schleicher and Schuell). The percentage of pool RNA bound to the nitrocellulose was calculated and monitored approximately every 3 rounds with a single point screen (+/−300 nM C5). Pool Kd measurements were measured using a titration of protein and the dot blot apparatus as described above.
as §2, with “Kds were estimated for the 11 best clones identified in the single point screen, by fitting the data to the equation: fraction RNA bound=amplitude*Kd/(Kd+[C5]). The clones with the three best Kds were SEQ ID NO: 91 (73 nM), SEQ ID NO: 96 (84 nM) and SEQ ID NO: 95 (92 nM). The sequences for these 11 clones are listed below in Table 5.” left out

[5] = target: T1, complement C5 (full length); experiment: filter; dot blot, no binding; conditions: tags: Quidel / Complement Technologies A120.14 / Advanced Research Technologies
[6] = target: T1, complement C5 (full length); experiment: filter; dot blot; conditions: tags: Quidel / Complement Technologies A120.14 / Advanced Research Technologies
Method: as §3
(§4) Six constructs based on ARC913 (SEQ ID NO: 75) were transcribed, gel purified, and tested in dot blots for binding to C5.

[7] = target: T1, complement C5 (full length); experiment: filter; dot blot; 20% plateau; listing entry for SEQ 81 differs in length, printed sequence used; conditions: tags: Quidel / Complement Technologies A120.14 / Advanced Research Technologies
Method: as §3, §4

C5a des Arg, sequence (P01031 678-750, one chain of several): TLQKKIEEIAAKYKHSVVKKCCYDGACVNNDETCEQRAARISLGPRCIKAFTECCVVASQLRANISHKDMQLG

CGCCGCGGUCUCAGGCGCUGAGUCUGAGUUUACCUGCG (ssRNA, 2'-F all C and U; 2'-OMe purines except three 2'-OH purines; 3' inverted dT) [ARC186] was tested, and the Kd (C5a des Arg) was > 3000 nM, the Kd (complement C1q) was > 300 nM and the Kd (sC5b-9 complex) was > 200 nM. The IC50 [1] was 0.5 nM, the Kd [2] was 0.08 nM and the binding result (complement C3) was “no binding”.

B1: doped clone SEQ 98 (mixed)
RNA: GGGAGAGGAGAGAACGUUCUACCUUGGUUUGGCACAGGCAUAUAUACGCAGGGUCGAUCCGUUACGACUAGCAUCGAUG
modifications: dRmY: A,G deoxy; C,U 2'-OMe
B1: binds [3].

B2: doped clone SEQ 88 (mixed)
RNA: GGGAGAGGAGAGAACGUUCUACCUUGGUUUGGCACAGGCAUACAUACGCAGGGGUCGAUCGGUUACGACUAGCAUCGAUG
modifications: dRmY: A,G deoxy; C,U 2'-OMe
B2: binds [3].

B3: doped clone SEQ 93 (mixed)
RNA: B2 RNA with G27U, U29G, G38C, U41A, A42C, A44C, G51C, G54A, A58C, U59C
modifications: dRmY: A,G deoxy; C,U 2'-OMe
B3: binds [3].

B4: doped clone SEQ 90 (mixed)
RNA: B2 RNA with C43A, G54C
modifications: dRmY: A,G deoxy; C,U 2'-OMe
B4: binds [3].

B5: doped clone SEQ 89 (mixed)
RNA: B2 RNA with G53U, G61U
modifications: dRmY: A,G deoxy; C,U 2'-OMe
B5: binds [3].

B6: doped clone SEQ 91 (mixed)
RNA: B2 RNA with A34C, C43U, G54A, C56U, G61C
modifications: dRmY: A,G deoxy; C,U 2'-OMe
With B6 the Kd [4] was 73 nM.

B7: doped clone SEQ 92 (mixed)
RNA: GGGAGAGGAGAGAACGUUCUACCUUGGUUUGGCGCAGGCAUACAUACGCAGGUCGAUCGGUUACGACUAGCAUCGAUG
modifications: dRmY: A,G deoxy; C,U 2'-OMe
B7: binds [3].

B8: doped clone SEQ 95 (mixed)
RNA: GGGAGAGGAGAGAACGUUCUACCUUAGGUUCGCACUGUCAUACAUACACACGGGCAAUCGGUUACGACUAGCAUCGAUG
modifications: dRmY: A,G deoxy; C,U 2'-OMe
Binder B8 has a Kd [4] of 92 nM.

B9: doped clone SEQ 94 (mixed)
RNA: GGGAGAGGAGAGAACGUUCUACCUUGGUUUGGCACAGGCAUACAUACGCAGGUCGAUCGGUUACGACUA
modifications: dRmY: A,G deoxy; C,U 2'-OMe
B9: binds [3].

GGGUUUGGCACAGGCAUACAUACCC (mixed, dRmY: A,G deoxy; C,U 2'-OMe) [ARC876]: no binding [5].

GGGUUUGGCACAGGCAUACAAACCC (mixed, dRmY: A,G deoxy; C,U 2'-OMe) [ARC877]: no binding [5].

B10: doped clone SEQ 97 (mixed)
RNA: GGGAGAGGAGAGAACGUUCUACCUUUCUCUGCCACAAGCAUACCUUCGCGGGGUUCUAUUGGUUACGACUAGCAUCGAUG
modifications: dRmY: A,G deoxy; C,U 2'-OMe
B10: binds [3].

With CCUUGGUUUGGCACAGGCAUACAUACGCAGGG (mixed, dRmY: A,G deoxy; C,U 2'-OMe) [ARC874] the Kd [6] was 1000 nM.

CCUUGGUUUGGCACAGGCAUACAAACGCAGGG (mixed, dRmY: A,G deoxy; C,U 2'-OMe) [ARC875]: no binding [5].

GGCGGCACAGGCAUACAUACGCAGGGGUCGCC (mixed, dRmY: A,G deoxy; C,U 2'-OMe) [ARC878]: no binding [5].

Work on CGUUCUACCUUGGUUUGGCACAGGCAUACAUACGCAGGGGUCGAUCG (mixed, dRmY: A,G deoxy; C,U 2'-OMe) [ARC954] yielded a Kd [7] of 130 nM.
